The source of these data is the nanobody polyreactivity screen of Harvey et al. (2022).

This data set in a line: yeast display, Sf9 membrane polyspecificity reagent, FACS + sequencing; frameworks hold sequencing errors. The method, boiled down:
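Using colony PCR, genes from sorted yeast display clones were amplified, then sequenced on MiSeq at 2 × 250 and filtered by CDR length. The clones had been stained with 10% biotinylated, detergent-solubilized Sf9 membrane reagent for 1 hour at 4 °C and sorted by FACS into low and high (top ~1%) gates on anti-HA and streptavidin fluorescence. Polyreactivity labels come from the gate of origin.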
Regarding “QVQLVESGGGLVQAGGSLRLSCAASGLIFVINAMGWYRQAPGKERELVATISSGVSTNYADSVKGRFTISRDNAKNTVYLQMNSLKPEDTAVYYCNAPEITYYYAPWETKIYDYWGQGTQVTVSS”, the “polyreactivity (PSR sort gate)” value was “low polyreactivity”.
The same measure for “QVQLVESGGGLVQAGGSLRLSCAASGLIFVSYAMGWYRQAPGKERELVASITDSDSSTYYADSVKGRFTISRDNAKNTVYLQMNSLKPEDTAVYYCATGGRTEIWYPTLDYWGQGTQVTVSS”: “low polyreactivity”; for “QVQLVESGGGLVQAGGSLRLSCAASGLIFVTNAMGWYRQAPGKERELVAAITRSGGSTYYADSVKGRFTISRDNAKITVYLQMNSLKPEDTAVYYCATGFHYAYGYCGQGTQVTVSS”: “low polyreactivity”.
The same measure for “QVQLVESGGGLVQAGGSLRLSCAASGLIFVVYVMGWYRQAPGKERQLVAAMYGSGDSTYYADSVKGRFTISRDNAKNSVSLKMNSLKPEDTAVYSCAAKAFISDGYWYGYWGQGTQVTVSS”: “high polyreactivity”.
Take “QVQLVESGGGLVQAGGSLRLSCAASGLIFWGYTMGWYRPAPGKERELVASITTSGSTYYADSVKGRFTISRDNAKNTVYLQMNSLKPEDTAVYYCAVDNYYTPWYPYLGYDSWGQGTQVTVSS”: the “polyreactivity (PSR sort gate)” value is recorded as “low polyreactivity”.
The same measure for “QVQLVESGGGLVQAGGSLRLSCAASGLIFWRYDMGWYRQAPGKERELVAVITSGGNTYYADAVKGRFRISRDNAKNTVYLQMNSLKPEDTAVYYCNADTWRDDYDYWGQGTQVTVAS”: “low polyreactivity”; for “QVQLVESGGGLVQAGGSLRLSCAASGLIFWYYTMGWYRQAPGKERELVAAITIGGSTYYADSVKGRFTISRDNAKNTVYLQMNSLKPEDTAVYYCNTRRGRSQGGRYEYDYWGQGTQVTVSS”: “low polyreactivity”.
Turning to “QVQLVESGGGLVQAGGSLRLSCAASGLIFYAYAMGWYRPAPGKERELVAAITSGSGTNYADSVKGRFTISRDNAKNTVYLQMNSLKPEDTAVYYCNAETYGLVPYYIYHYDFDYWGQVTQVTVSS”, the “polyreactivity (PSR sort gate)” value is “high polyreactivity”.
The same measure for “QVQLVESGGGLVQAGGSLRLSCAASGLIFYAYYMGWYRQAPGKERELVAAISYSGGSTYYADSVKGRFTISRDNAKNTVYLQMNSLKPEDTSVYYCAADDGISTYEYWGQGTQVTVSS”: “high polyreactivity”; for “QVQLVESGGGLVQAGGSLRLSCAASGLIFYDNMGWYRQAPGKERELVAAISSSGGSTSYADSVKGRFTISRDNAKNTVYFLMNSLKPEDTAVYYCAADQYYYWYTHQSIGYDYWGQGTQVTVSS”: “low polyreactivity”; for “QVQLVESGGGLVQAGGSLRLSCAASGLIFYFNGMGLYRQAPGKERELVASISASGDRTYYADSVKGRFTISRDNAKNTVYLQMNSLKQEDTAVYYCATDANTYTKYDYWGQGTQVSVSS”: “low polyreactivity”.
The same measure for “QVQLVESGGGLVQAGGSLRLSCAASGLIFYGNAMGWYRQAPGKERELVADITGSSVRTYSADSVKGRFTISRDNAKNTVYVQMNSLNRKIPRSITALNVSCTSVVVGYDYWGQGTQVTVSS”: “low polyreactivity”.
The result for “QVQLVESGGGLVQAGGSLRLSCAASGLIFYGNAMGWYRQSPGKDRELVAAISRRGGRTYYADSVKGRFTISRDNAENTVYLQMNSLKPEDTAVYYCSAQYSYPYYKVTLYYWGQGTQVTVSS” reads “high polyreactivity”; that for “QVQLVESGGGLVQAGGSLRLSCAASGLIFYINAMGWYRQAPGKERELVASITRTGSTNYADSVKGRFTISRDNAKNTVYLQMNSLKAEDTAVYYCAAYGPVYPHEYDYWGQGTQVTVSS”, “low polyreactivity”; that for “QVQLVESGGGLVQAGGSLRLSCAASGLIFYLYAMGWYRQAPGKERELVAAFTYSGGSTRYADSVKGRFTISRDNAKNTVYLQMNSLKPEDTAVYYCNADGTAPTEMDYWGQGTQVTVSS”, “low polyreactivity”.
As to “QVQLVESGGGLVQAGGSLRLSCAASGLIFYNYAMGWYRQAPGKERELVAAISRSGGRTYYADSVKGRFTISRDNAKNTVYLQMNSLKPEDTAVYYCNAVHVSIEGYYWGQGTQVTVSS”, the “polyreactivity (PSR sort gate)” value is recorded as “high polyreactivity”.
The same measure for “QVQLVESGGGLVQAGGSLRLSCAASGLIFYPYAMGWSRQAPGKEREFVAAITWSGGSTRYADSVKGRFTISRDNAKNTVYLQMNSLNPEDTAVYYCAAAYKWTYYWGQGTQVTVSS”: “high polyreactivity”.
The result for “QVQLVESGGGLVQAGGSLRLSCAASGLIFYPYAMGWYRQAPGKERELVAGISSSGDSTYYADSVKGRFTISRDNAKNTVYLQMNSLKPEDTAVYYCNADGWYFEYWGQGTQVTVSS” reads “low polyreactivity”.
“QVQLVESGGGLVQAGGSLRLSCAASGLIFYRYAMGWYRQAPGTERELVAVITRSGCNTNYADSVKGRFTISRDNAKNTVYLQMNSLKPEDTEVYYCDTRGIWKKVPYYYWGQGTQVTVSS”: the “polyreactivity (PSR sort gate)” value is “low polyreactivity”.
As for “QVQLVESGGGLVQAGGSLRLSCAASGLIFYRYTMGWYRQAPGKEREFVAAITAGGSTYYADSVKGRFTISRDNAKNTVYVQMNSLKPEDTAVYYCATLVRLLQYTYIKYDYWGQGTQVTVSS”, the “polyreactivity (PSR sort gate)” value was “high polyreactivity”.
“QVQLVESGGGLVQAGGSLRLSCAASGLIFYRYTMGWYRQAPGKERELVAAISWRGTRTYYADSVKGRFTISRDNAKNTVYLQMNSLKPEDTAVYYCTAGYVRRYSPSSSWRYDYWGQGTQVTVSS”: the “polyreactivity (PSR sort gate)” value is “high polyreactivity”.
The same measure for “QVQLVESGGGLVQAGGSLRLSCAASGLIFYSYTMGWYRQAPGKERELVASITWTGGSTYYADSVKGRFTISRDNAKNTVYLQMNSLKPEDTAVYYCAVRVPSSIHIQLDYWGQGTQVTVSS”: “high polyreactivity”; for “QVQLVESGGGLVQAGGSLRLSCAASGLIFYTYAMGWYRQAPGNERELVADINRSDGSTYYADSVKGRFTISRDNAKNTVYLQMNSLKPEDTAVYYCAVVGPYYSRFGGRYYYWGQGTQVTVSS”: “low polyreactivity”.
The result for “QVQLVESGGGLVQAGGSLRLSCAASGLIFYVYAMGWYRQAPGKERELVADITYSGGRTYYADSVKGRFTISRDKAKNTVYLQMNSLKPEDTAVYYCAADSVKYGIDPGLPNSDDYWGQGTQVTVSS” reads “low polyreactivity”; that for “QVQLVESGGGLVQAGGSLRLSCAASGLIFYYYAMGGYRQAPGTQRELVACITGGDSTNYADSVKGRFTISRDNAKNTVYLQMNSLKPEDTAVYYCAAEFYGSSFGYRTYDYYYWGQGTEVTVSS”, “low polyreactivity”.
With “QVQLVESGGGLVQAGGSLRLSCAASGLIFYYYAMGWYRQAPGKEREFVAAISRRGGSTYYADSVKGRFTISRDNAKNTVYLHMNSLKPEDTAVYYCAAKSGSFVHGGYQTPVYGSDYWGQGTQVTVSS”, the “polyreactivity (PSR sort gate)” value is on record as “high polyreactivity”.
With “QVQLVESGGGLVQAGGSLRLSCAASGLIFYYYAMGWYRQAPGKERELVAAITSDDRTYYADSVKGRFTISRDNAKNTFYLQMNSLKPEDTAVYYCAARYHGYLPQYRKYGYGYWGQGTQVTVSS”, the “polyreactivity (PSR sort gate)” value is on record as “high polyreactivity”.
The result for “QVQLVESGGGLVQAGGSLRLSCAASGLIFYYYAMGWYRQAPGKEREVVAAISSNGGSTYYADSVKGRFTISRDNAKNTVYLQMNSLKPEDTAVYYCAAGYAYYYWTPYYYWGQGTQVTVSS” reads “high polyreactivity”.
The same measure for “QVQLVESGGGLVQAGGSLRLSCAASGLIFYYYAMGWYRQAPWKEREFVAAISRSGGIKRYADSVKGRFTISRDNAKNTVYLQMNSLKPEDTAVYYCAARYYYRHAQSFPWSNRWSSYYYWGQGTQVTVSS”: “high polyreactivity”.
The same measure for “QVQLVESGGGLVQAGGSLRLSCAASGLIIPYYAMGWSRQAPGKERELVAGITSDGSTNYADSVMGRFTISRDNAKIIVYLQMYSLKPVDTAVYYCAKEQGLYSVSPYDYWGQGTQVSVSS”: “low polyreactivity”; for “QVQLVESGGGLVQAGGSLRLSCAASGLIIRRYAMGWYRQAPGKERELVAAISGSGSSTYYADSVKGRFTISRDNAKNTVYLQMNSLKPEDTAVYDCAAVVLFRRGQVIRVESDYWGQGTQVTVSS”: “high polyreactivity”.
“QVQLVESGGGLVQAGGSLRLSCAASGLIIRWYAMGWYRQAPGKERELVAAITRAGSTNYADSVKWRFTISRDNAKNTVYLQMNSLKPEDTAVYYCAAVAVELASEYDYWGQGTQVTVSS”: the “polyreactivity (PSR sort gate)” value was “low polyreactivity”.
The result for “QVQLVESGGGLVQAGGSLRLSCAASGLIIWLYTMGWYRQAPGKERELVAAIDWSGGSTYYADSVKGRFTISRDNAKNTVYLQMNSLKPEDTAVYYCAADPEPSYRFDYWGQGTQVTVSS” reads “low polyreactivity”; that for “QVQLVESGGGLVQAGGSLRLSCAASGLIIYSNAMGWYRQAPRKERELVAAINYSGGRTYYADSVKGRFTISRDNAKNTVYLQMNSLKPEDTAVYYCAARLYGAQRHGGYWGQGTQVTVSS”, “high polyreactivity”; that for “QVQLVESGGGLVQAGGSLRLSCAASGLIIYYYAMGWYRQAPGKERELVAAITWTAGSTSYADSVKGRFTISRDNAKNTVYLQMNSLKPEDTAVYYCAADYRHDTFSNQYDYWGQGTQVTVSS”, “low polyreactivity”.
The same measure for “QVQLVESGGGLVQAGGSLRLSCAASGLILHKYAMGWYRQAPGKERELVASINSGANTNYADSVKGRFTISRDNAKNTVYLQMNSLKPEDTAVYYCNASPFTVRYYKYEYWGQGTQVTVSS”: “low polyreactivity”.
The same measure for “QVQLVESGGGLVQAGGSLRLSCAASGLILSRNVMGWYRQAPGKERELVAAINWSSGSTYYADSVKGRFTISRDNGKNTVSLQMNSLKPEDTAVYYCAATVFYDAEYDYWGQGSQVTVSS”: “high polyreactivity”.
“QVQLVESGGGLVQAGGSLRLSCAASGLILSSNAMGWYRQAPGKERELVAAITWDGDRTYADSVKGRFTISRDNAKNTVYLQMNSLKPEDTAVYYCAADKQYSWYDWSYDYWGQGTQVTVSS”: the “polyreactivity (PSR sort gate)” value is listed as “low polyreactivity”.
The same measure for “QVQLVESGGGLVQAGGSLRLSCAASGLILVPNTMGWYRQAPGKERELVAAISYSGGGTYYADSVKGRFTISRDNANNTVYLQMNSLKPEDTAVYYCAAYVKRESAPYGYWGQGTLVTVSS”: “low polyreactivity”.
Consider “QVQLVESGGGLVQAGGSLRLSCAASGLILVPNTMGWYRQAPGKESELVAAISDSGGGTYYADSVKGRFTISRDNAKNTVYLQMISLKPEDTAVYYCAAYGKRESAPYGYWGQGTQVTVSS”, for which the “polyreactivity (PSR sort gate)” value was “low polyreactivity”.
